The values that follow come from article PMC12164958.

The target in assay [1] is UBR7 (construct of the Co-IP assays). Nature of the assay: Co-IP (IP: Anti-Flag), quantified band intensity, bar chart of three replicates. To be noted: parent: est. 1.0; read off a plot.
Assay [2] has the same target. Nature of the assay: Co-IP (IP: Anti-Flag, blot Anti-HA), band intensity. To be noted: parent: 1.00.
Assay [3] has as its target MBP-tagged UBR7. Nature of the assay: MBP pull-down, quantified band intensity, bar chart of three replicates. To be noted: parent: est. 1.0; read off a plot.
Assay [4] deals with MBP-tagged UBR7. Nature of the assay: MBP pull-down (blot Anti-His), band intensity. To be noted: parent: 1.00.
The target of the next assay is UBR7-nLuc. As to the kind of experiment: LCI assay (luciferase complementation imaging) in N. benthamiana leaves. To be noted: Luminescence signals were recorded at 48 hpi; parent: est. 1.0; read off a plot.

As to AL7-3×Flag S174A, the results for the ratio to parent in assay [1] and in assay [2] were 0.6 and 0.55, respectively.

Regarding AL7-3×Flag S174D, the ratio to parent worked out at 1.9 in assay [1] and 1.63 in assay [2].

Take His-tagged AL7 S174A: the results for the ratio to parent in the assay with MBP-tagged UBR7 [3] and with MBP-tagged UBR7 [4] were 0.72 and 0.95, respectively.

With His-tagged AL7 S174D, the ratio to parent with MBP-tagged UBR7 [3] is 3.1; with MBP-tagged UBR7 [4], 3.18.

Consider cLuc-AL7 S174A, for which the ratio to parent with UBR7-nLuc turned out to be 0.98.

Regarding cLuc-AL7 S174D, in the assay with UBR7-nLuc, the ratio to parent came to 1.6.
